From publication PMC5536344

Legend:
[1] = biological target: HIV-1 Pr55^Gag-ENLYFQ (Pr55^Gag-TEV-His after removal of the tag with TEV protease) (HIV-1); assay: SEC
[2] = biological target: HIV-1 Pr55^Gag (untagged full length wild type Gag polyprotein) (HIV-1); assay: SEC-MALS
[3] = biological target: HIV-1 Pr55^Gag (untagged full length wild type Gag polyprotein) (HIV-1); assay: SEC
[4] = biological target: HIV-1 Pr55^Gag with a non-cleavable C-terminal hexahistidine tag (HIV-1); assay: SEC
[5] = biological target: HIV-1 Pr55^Gag with a TEV-cleavable C-terminal hexahistidine tag, uncleaved (HIV-1); assay: SEC

In the case of “HIV-1 Pr55^Gag-ENLYFQ (Pr55^Gag-TEV-His after removal of the tag with TEV protease) (natural protein)”, the stoichiometry N [1] is reported as 2.

In the case of “HIV-1 Pr55^Gag (untagged full length wild type Gag polyprotein) (natural protein)”, the stoichiometry N [2] is reported as 2 and the stoichiometry N [3] is reported as 2.

Work on “HIV-1 Pr55^Gag with a non-cleavable C-terminal hexahistidine tag (natural protein)” yielded a stoichiometry N [4] of 2.

“HIV-1 Pr55^Gag with a TEV-cleavable C-terminal hexahistidine tag, uncleaved (natural protein)” was tested, and the stoichiometry N [5] was 2.
